Measured values reported in US20240317834A1, “COMPOSITIONS AND METHODS FOR NEUROLOGICAL DISEASES” (CODA BIOTHERAPEUTICS, INC., priority 2020, published 2024).

Tested on: Lenti-X 293T cells
Test: YFP fluorescence quenching anion reporter plate reader assay of engineered receptors stimulated with acetylcholine or a non-native ligand
Type: cell-based
Conditions: for percent quench of YFP fluorescence, 10 uM ach: acetylcholine 10 uM; for percent quench of YFP fluorescence, 100 uM ach: acetylcholine 100 uM; for percent quench of YFP fluorescence, 1 mM ach: acetylcholine 1 mM; for percent quench of YFP fluorescence, 3 mM ach: acetylcholine 3 mM
From the text: To screen these mutant LGICs for those having novel response profiles to ligands, an anion reporter assay was developed to assess the function of the LGICs in a high throughput format. In this assay, cells expressing a YFP reporter whose fluorescence is quenched in the presence of anion are transfected with DNA encoding the channel of interest. Upon exposure to ligand, channels that are activated will flux anion, resulting in a dose-dependent quench of the YFP that can be detected on a plate reader. The greater the quench signal (i.e., the more positive the value), the higher the ligand activity on the receptor is.
Lenti-X 293T cells (LX293T, Clontech) were maintained in DMEM containing 10% FBS and 1% penicillin/streptomycin (Invitrogen). […] Two days before assay, cells were split at a density of 20,000 cells/well in a 96-well tissue culture plate coated with poly-d lysine (Thermo Scientific). The next day, the cells were transiently transfected with 0.1 μg of DNA per well using standard Fugene protocol (Promega). On the day of assay, cells were washed 2 times in 1× extracellular solution (1×ECS: 140 mM NaCl, 5 mM KCl, 1 mM MgCl2, 2 mM CaCl2), 10 mM HEPES, 10 mM glucose, pH 7.2, mOsms 300). After the last wash, 100 μL of 1×ECS was added to the wells and the plate was incubated at 37° C. for 30 min. While incubating the plate, the drugs were diluted to a 2× concentration in 1×ECS-NaI (same components as 1×ECS except the 140 mM NaCl was replaced by 140 mM NaI). The plates were then read on a Flexstation3 (Molecular Devices). Each well, 8 wells at a time, of the plate is read for 2 min using a Flexstation3 (Molecular Devices) as follows: 1) a baseline YFP fluorescence is read for 17 sec, 2) 100 μL of ligand is added, and 3) the changes in YFP fluorescence are then measured every 1.3 sec for 1 minute and 43 seconds. The percent quench is calculated from the average fluorescence of the last 10 seconds of the read divided by the baseline average of the first 15 seconds prior to the ligand addition.
FIGS. 1A-1J provide heat maps of the percent quench of YFP fluorescence following stimulation by various doses of either acetylcholine or the non-native ligand as indicated in the Figures. CODA71 (SEQ ID NO: 33) was used as a control, and CODA75 (SEQ ID NO: 29, a non-responding chimeric engineered receptor) was used as the negative control. Quenching of the fluorescence signal, as indicated by blue shaded cells, indicate the level of engineered receptor activation by the non-native ligand at that concentration.

B1: CODA236: engineered chimeric LGIC receptor, R101F in SEQ ID NO: 33 (protein)
chain: MRCSPGGVWLALAASLLHVSLQGEFQRKLYKELVKNYNPLERPVANDSQPLTVYFSLSLLQIMDVDEKNQVLTTNIWLQMSWTDHYLQWNVSEYPGVKTVFFPDGQIWKPDILLYNSADERFDATFHTNVLVNSSGHCQYLPPGIFKSSCPMDLKNFPMDVQTCKLKFGSWSYGGWSLDLQMQEADISGYIPNGEWDLVGIPGKRSERFYECCKEPYPDVTFTVTMRRRMGYYLIQMYIPSLLIVILSWISFWINMDAAPARVGLGITTVLTMTTQSSGSRASLPKVSYVKAIDIWMAVCLLFVFSALLEYAAVNFVSRQHKELLRFRRKRRHHKSPMLNLFQEDEAGEGRFNFSAYGMGPACLQAKDGISVKGANNSNTTNPPPAPSKSPEEMRKLFIQRAKKIDKISRIGFPMAFLIFNMFYWIIYKIVRREDVHNQ
modifications: synthetic sequence of chimeric LGIC
1 nM CNL001, first column
  YFP fluorescence quenching using CNL001: 9.048%
1 nM CNL001, second column
  YFP fluorescence quenching using CNL001: 26.601%
3 nM brd
  YFP fluorescence quenching using TC-5619/Bradanicline: 49.33%
3 nM var, first column
  YFP fluorescence quenching using Varenicline: 19.949
3 nM var, second column
  YFP fluorescence quenching using Varenicline: 22.334
10 nM CNL001, first column
  YFP fluorescence quenching using CNL001: 71.533%
10 nM CNL001, second column
  YFP fluorescence quenching using CNL001: 72.948%
30 nM brd
  YFP fluorescence quenching using TC-5619/Bradanicline: 77.38%
30 nM fac
  YFP fluorescence quenching using Facinicline: −28.54
30 nM var, first column
  YFP fluorescence quenching using Varenicline: 15.764
30 nM var, second column
  YFP fluorescence quenching using Varenicline: 16.213
50 nM CNL001, first column
  YFP fluorescence quenching using CNL001: 75.895%
50 nM CNL001, second column
  YFP fluorescence quenching using CNL001: 74.238%
50 nM abt
  YFP fluorescence quenching using ABT-126: −18.69%
100 nM CNL001, first column
  YFP fluorescence quenching using CNL001: 76%
100 nM CNL001, second column
  YFP fluorescence quenching using CNL001: 75.861%
100 nM CNL002
  YFP fluorescence quenching using CNL002: −9.56%
100 nM abt
  YFP fluorescence quenching using ABT-126: −23.01%
100 nM azd0328
  YFP fluorescence quenching using AZD-0328: −9.78%
300 nM abt
  YFP fluorescence quenching using ABT-126: −20.92%
300 nM azd0328
  YFP fluorescence quenching using AZD-0328: 49.64%
300 nM brd
  YFP fluorescence quenching using TC-5619/Bradanicline: 77.51%
300 nM fac
  YFP fluorescence quenching using Facinicline: 72.98
300 nM var, first column
  YFP fluorescence quenching using Varenicline: 23.135
300 nM var, second column
  YFP fluorescence quenching using Varenicline: 22.987
500 nM var, first column
  YFP fluorescence quenching using Varenicline: 35.048
500 nM var, second column
  YFP fluorescence quenching using Varenicline: 34.188
1 uM CNL001, first column
  YFP fluorescence quenching using CNL001: 76.367%
1 uM CNL001, second column
  YFP fluorescence quenching using CNL001: 76.162%
1 uM CNL002
  YFP fluorescence quenching using CNL002: 56.9%
1 uM abt
  YFP fluorescence quenching using ABT-126: 4.99%
1 uM tc6987
  YFP fluorescence quenching using TC-6987: 45.34
1 uM var, first column
  YFP fluorescence quenching using Varenicline: 71.031
1 uM var, second column
  YFP fluorescence quenching using Varenicline: 71.005
10 uM tc6987
  YFP fluorescence quenching using TC-6987: 70.04
30 uM CNL002
  YFP fluorescence quenching using CNL002: 70.28%
30 uM azd0328
  YFP fluorescence quenching using AZD-0328: 81.14%
30 uM fac
  YFP fluorescence quenching using Facinicline: 87.6
500 uM tc6987
  YFP fluorescence quenching using TC-6987: 75.86
  percent quench of YFP fluorescence, 10 uM ach: −18.24%
  percent quench of YFP fluorescence, 100 uM ach: 60%
  percent quench of YFP fluorescence, 1 mM ach: 66.07%
  percent quench of YFP fluorescence, 3 mM ach: 71.38%

B2: CODA237: engineered chimeric LGIC receptor, R101M in SEQ ID NO: 33 (protein)
chain: MRCSPGGVWLALAASLLHVSLQGEFQRKLYKELVKNYNPLERPVANDSQPLTVYFSLSLLQIMDVDEKNQVLTTNIWLQMSWTDHYLQWNVSEYPGVKTVMFPDGQIWKPDILLYNSADERFDATFHTNVLVNSSGHCQYLPPGIFKSSCPMDLKNFPMDVQTCKLKFGSWSYGGWSLDLQMQEADISGYIPNGEWDLVGIPGKRSERFYECCKEPYPDVTFTVTMRRRMGYYLIQMYIPSLLIVILSWISFWINMDAAPARVGLGITTVLTMTTQSSGSRASLPKVSYVKAIDIWMAVCLLFVFSALLEYAAVNFVSRQHKELLRFRRKRRHHKSPMLNLFQEDEAGEGRFNFSAYGMGPACLQAKDGISVKGANNSNTTNPPPAPSKSPEEMRKLFIQRAKKIDKISRIGFPMAFLIFNMFYWIIYKIVRREDVHNQ
modifications: synthetic sequence of chimeric LGIC
1 nM CNL001, first column
  YFP fluorescence quenching using CNL001: −2.114%
1 nM CNL001, second column
  YFP fluorescence quenching using CNL001: −5.079%
3 nM brd
  YFP fluorescence quenching using TC-5619/Bradanicline: −14.87%
3 nM var, first column
  YFP fluorescence quenching using Varenicline: 18.429
3 nM var, second column
  YFP fluorescence quenching using Varenicline: 16.83
10 nM CNL001, first column
  YFP fluorescence quenching using CNL001: 15.096%
10 nM CNL001, second column
  YFP fluorescence quenching using CNL001: 50.554%
30 nM brd
  YFP fluorescence quenching using TC-5619/Bradanicline: 69.93%
30 nM fac
  YFP fluorescence quenching using Facinicline: −24.14
30 nM var, first column
  YFP fluorescence quenching using Varenicline: 23.07
30 nM var, second column
  YFP fluorescence quenching using Varenicline: 15.868
50 nM CNL001, first column
  YFP fluorescence quenching using CNL001: 66.585%
50 nM CNL001, second column
  YFP fluorescence quenching using CNL001: 74.462%
50 nM abt
  YFP fluorescence quenching using ABT-126: −24.34%
100 nM CNL001, first column
  YFP fluorescence quenching using CNL001: 78%
100 nM CNL001, second column
  YFP fluorescence quenching using CNL001: 77.411%
100 nM CNL002
  YFP fluorescence quenching using CNL002: −8.68%
100 nM abt
  YFP fluorescence quenching using ABT-126: −20.22%
100 nM azd0328
  YFP fluorescence quenching using AZD-0328: −17.84%
300 nM abt
  YFP fluorescence quenching using ABT-126: −20.57%
300 nM azd0328
  YFP fluorescence quenching using AZD-0328: −11.98%
300 nM brd
  YFP fluorescence quenching using TC-5619/Bradanicline: 76.57%
300 nM fac
  YFP fluorescence quenching using Facinicline: −14.38
300 nM var, first column
  YFP fluorescence quenching using Varenicline: 18.819
300 nM var, second column
  YFP fluorescence quenching using Varenicline: 19.155
500 nM var, first column
  YFP fluorescence quenching using Varenicline: 19.117
500 nM var, second column
  YFP fluorescence quenching using Varenicline: 22.593
1 uM CNL001, first column
  YFP fluorescence quenching using CNL001: 79.06%
1 uM CNL001, second column
  YFP fluorescence quenching using CNL001: 79.162%
1 uM CNL002
  YFP fluorescence quenching using CNL002: −2.24%
1 uM abt
  YFP fluorescence quenching using ABT-126: −19.55%
1 uM tc6987
  YFP fluorescence quenching using TC-6987: −21.62
1 uM var, first column
  YFP fluorescence quenching using Varenicline: 24.525
1 uM var, second column
  YFP fluorescence quenching using Varenicline: 23.383
10 uM tc6987
  YFP fluorescence quenching using TC-6987: 21.52
30 uM CNL002
  YFP fluorescence quenching using CNL002: 66.99%
30 uM azd0328
  YFP fluorescence quenching using AZD-0328: 81.2%
30 uM fac
  YFP fluorescence quenching using Facinicline: 88.78
500 uM tc6987
  YFP fluorescence quenching using TC-6987: 60.33
  percent quench of YFP fluorescence, 10 uM ach: −16.79%
  percent quench of YFP fluorescence, 100 uM ach: −18.63%
  percent quench of YFP fluorescence, 1 mM ach: 46.28%
  percent quench of YFP fluorescence, 3 mM ach: 69.31%
